± gives the standard deviation of the averaged measurements.
System: ATP
Experiment: switch fluorescence ratio, 500 uM ATP over buffer (Cy3 cluster intensity, sum of 5 cycles each) (fold (ratio)); higher = stronger signal-on switching upon ATP binding; sequences stand for … in TCGTCGGCAGCGTCAGATGTGTATAAGAGACAGTTTTTTTTTTTTTTTTTTTTTTTTT…TC
Conditions: aptamer strand: ATP DNA aptamer (quencher-CACCTGGGGGAGTATTGCGGAGGAAGG + anchor), 100 nM annealed; ATP concentration: 500 uM
Method in brief: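 Clusters with intensities outside 100-1000 RFU were excluded. The remaining Cy3-labelled switching-strand clusters on a modified Illumina MiSeq flow-cell had been annealed to 100 nM quencher-labelled ATP aptamer and imaged in selection buffer, then after 15 min with 500 uM ATP at 22 °C, for five cycles separated by NaOH stripping and re-annealing. The fluorescence ratio, averaged per switch-domain sequence, is each cluster's summed target-cycle Cy3 intensity over its summed buffer-cycle Cy3 intensity.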
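Further: ATP exposure 15 min at 22 °C before imaging.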

Sequence | switch fluorescence ratio
GAGTTGTCAA | 0.972 ± 0.033
TGGGAAAGAA | 1.04 ± 0.068
TAATTGTGTG | 1 ± 0.038
TTTAACTCTG | 1 ± 0.011
GGGGGTTTGA | 1 ± 0.022
TTTGACGTTG | 1.02 ± 0.047
CCAGGTAGCA | 1.27 ± 0.12
GAGTCGCCTG | 0.991 ± 0.037
GTGGGTCAGG | 1.01 ± 0.013
AATGCTCGGC | 0.9646 ± 0.0092
GTCAAGGGGA | 1.02 ± 0.015
CGATGGCGGG | 1.02 ± 0.071
TCTGCTTCCG | 1.03 ± 0.02
GCTGCGGGGT | 0.993 ± 0.045
ACATAGCTGG | 1.01 ± 0.029
AGACGGGGCC | 1.01 ± 0.018
AACTTTTCTA | 0.976 ± 0.017
GATTTTCCAT | 1.03 ± 0.021
TTATGACGGG | 1 ± 0.036
CTTGGAGGGT | 1.04 ± 0.086
CGTCGGGGTT | 0.973 ± 0.032
TTCGGTGGTT | 1.08 ± 0.076
ACTGACTCA | 1.23 ± 0.048

Sequence | switch fluorescence ratio
ATTTGTAAGC | 0.9909 ± 0.0068
GTAGCGGGGT | 1.006 ± 0.0054
TCATGGACTG | 1.06 ± 0.02
CAAGGACATA | 1.07 ± 0.038
AGAGTATTAG | 1 ± 0.013
CGGGGGAACG | 1.01 ± 0.048
TCTGGGAATG | 0.983 ± 0.01
TAGTGCTGCA | 0.9692 ± 0.0012
TTCAATTCAC | 1.37 ± 0.41
GCTAGAAGCG | 1.001 ± 0.0099
AAAACCAGTA | 1.01 ± 0.075
TTAATATGTA | 0.9897 ± 0.0074
CATTGCTATT | 1.02 ± 0.017
TCAGGTAGTG | 0.9875 ± 0.0078
TTTTGGAAAG | 0.987 ± 0.013
AAGTAACGTC | 1.041 ± 0.01
TACCAGGCGG | 1.04 ± 0.037
GGGCGGCCTA | 0.999 ± 0.021
TTATATTTCT | 1.01 ± 0.036
GCCTGTAAGT | 0.989 ± 0.032
CTCTGATAGC | 1.23 ± 0.013
CTAAAGCGCG | 1.07 ± 0.034
CTAAGATAGC | 1.03 ± 0.041

Sequence | switch fluorescence ratio
TCGGGTAGGG | 0.991 ± 0.025
GCATTAGGGA | 0.989 ± 0.024
AAATTGGACA | 1.04 ± 0.049
GGGCATTTTT | 0.9824 ± 0.0041
ATGTGTGGGC | 1.01 ± 0.021
CCTGGGACCA | 0.975 ± 0.0064
TCAACGCCCC | 1.28 ± 0.055
AGTGGTGGTG | 0.9902 ± 0.0039
TAAGAGGA | 0.991 ± 0.015
CCGGTCTTTT | 0.961 ± 0.018
GGGTTTATAT | 0.997 ± 0.022
TGACGTTGAG | 0.9868 ± 0.0056
TAGTTTTTCG | 1 ± 0.025
AGTACGTGCG | 0.9781 ± 0.0081
GACATGGGTG | 1.02 ± 0.031
TATGAAGAGG | 0.994 ± 0.033
TCTTTGTTGT | 1.01 ± 0.019
CGGTGTAAAA | 0.961 ± 0.011
CGGCCTGTGC | 1.03 ± 0.087
TTTTAGAGAG | 0.997 ± 0.019
AGGTCGGTCT | 0.995 ± 0.058
TGTTATATTA | 1.01 ± 0.034
GATAGTTCGT | 1.01 ± 0.021

Sequence | switch fluorescence ratio
TATCTTTTTT | 0.98 ± 0.024
TTTACGGGTC | 0.981 ± 0.026
GGAGCTGTCG | 0.9774 ± 0.0094
CATGTCGGTT | 0.991 ± 0.019
AATTATGATG | 0.9948 ± 0.0069
CGTTTTTTTT | 0.989 ± 0.02
TGGGAAACGT | 1.09 ± 0.027
GATATAATGG | 0.9999 ± 0.0019
TATTTGATGT | 0.991 ± 0.029
GGGGGTTAGG | 1.01 ± 0.037
AGATGGTGGG | 1 ± 0.025
ACCGGGGCAA | 1.13 ± 0.16
CGACTTTTAT | 0.9818 ± 0.0046
AGAGGCTTTT | 1.02 ± 0.046
TTTTGTGAGG | 1.04 ± 0.044
AAGCTGTGCA | 0.99 ± 0.038
CTAGTCCTGA | 0.986 ± 0.043
TTTAGCAACA | 1.04 ± 0.047
TACAGTCTGG | 1.007 ± 0.0066
CGGTGGGGT | 1.035 ± 0.0064
GATAATTGGG | 0.9992 ± 0.0079
CATAACCGGT | 1.01 ± 0.027
CTTTGTATGG | 1 ± 0.017

Sequence | switch fluorescence ratio
GGTGGTGGCC | 1.01 ± 0.023
GACATTTCTT | 1.01 ± 0.011
CTCCTTTTTC | 0.976 ± 0.057
TAGTGGTGGA | 0.9979 ± 0.009
CAAGAGGGTT | 0.99 ± 0.032
GAGCTAGGGG | 1.03 ± 0.041
GGAATAGTAG | 1.003 ± 0.0065
AGTCACAGCT | 0.982 ± 0.032
ACCATGGCTT | 0.976 ± 0.013
GTAAGAAGTG | 0.941 ± 0.033
GGGTAAGGGC | 1.01 ± 0.031
GTGAGTTTTA | 0.971 ± 0.019
CAGTGAGGGT | 0.981 ± 0.019
GTTGGTGCAC | 0.98 ± 0.04
CGGGTTGCCC | 1 ± 0.012
TAAAGGATTC | 0.979 ± 0.045
GGTCGGTAGA | 0.998 ± 0.015
CTTTTAGTTT | 0.9963 ± 0.0034
GGTACCAGTT | 1.01 ± 0.012
TAGTCGTTAG | 1 ± 0.037
ATTATGGTAT | 1.02 ± 0.04
ATCTGTGATA | 0.977 ± 0.048
TGGTCGTCCG | 0.971 ± 0.057

Sequence | switch fluorescence ratio
TGGGATCAAG | 1 ± 0.032
TCAGACGTTC | 1.07 ± 0.05
AACATTTTGC | 0.9941 ± 0.0069
AGTAAGAGGG | 1.01 ± 0.012
TCATGTTCGG | 1.02 ± 0.034
TTTTTCCGGT | 1.07 ± 0.13
CGGGGGATTT | 1.01 ± 0.014
AAATTATTTC | 0.989 ± 0.033
TCTATTTCGT | 1.01 ± 0.032
GAAGCTAATC | 2.77 ± 0.47
GGATCTTTGA | 0.989 ± 0.027
TTGCGAGTTG | 1 ± 0.021
ATGTTGGTAG | 0.985 ± 0.026
GGAGGGGGGG | 1.02 ± 0.042
CGCGGGGTAG | 1.038 ± 0.0072
GTTGTTTGCG | 0.953 ± 0.023
TTTTTAATAG | 0.9855 ± 0.002
GAAGGTAGGT | 0.98 ± 0.024
CGGGCGAATA | 1 ± 0.017
GCCAATGTGG | 1 ± 0.051
ATATATGGTT | 0.988 ± 0.036
ATTGGTGGGG | 0.982 ± 0.033
TCTTGGGGGC | 1.01 ± 0.052

Sequence | switch fluorescence ratio
ATCAGTTTGG | 1.01 ± 0.015
AACCATACGT | 1.29 ± 0.032
TAGCATTGGT | 0.9903 ± 0.0016
TGGGGTTATG | 0.984 ± 0.019
CGTTTCAAGA | 0.9759 ± 0.0019
GGGGAAATTT | 1.02 ± 0.028
CGATAAGAAG | 1.01 ± 0.017
TTGCCACGGA | 1.07 ± 0.051
AGGGTAAAAG | 1.03 ± 0.024
GAGGGCATGA | 0.993 ± 0.074
TTCAGAAGCG | 1.01 ± 0.028
GCGGGGCCAG | 0.982 ± 0.011
CCGGGAGGAT | 0.987 ± 0.035
AAAAACGGGG | 1.009 ± 0.0075
TCTTGGGGT | 1.06 ± 0.15
TGGTTTATTG | 1.01 ± 0.024
TGCAGGTTGG | 1.03 ± 0.036
TTTCGTATTC | 1 ± 0.015
CGGGGGGCCC | 0.97 ± 0.024
